According to PMC7910423:

Target: CMP-Pse5Ac7Ac synthetase PseF from Aeromonas caviae (Aeromonas caviae)
Experiment: SEC-MALS; 100 uL of AcPseF at 4 mg/mL on a Superdex S200 column in 20 mM Tris pH 7.8, 50 mM NaCl, 2 mM MgCl2; Wyatt HELEOS-II light scattering and rEX refractive index detectors; BSA as standard

percent present as homodimer: > 99%
stoichiometry N: 2
Substance: CMP-Pse5Ac7Ac synthetase PseF from Aeromonas caviae (enzyme)
